Measurements: patent US20220390449A1, “NEW S[…] FOR THE LATENT FORM OF TOXOPLASMOSIS” (INSERM (INSTITUT NATIONAL DE LA SANTÉ ET DE LA RECHERCHE …, priority 2019, published 2022)
Entries after “also recorded” stand apart in the source; their conditions may differ.

Columns and labels:
BCLA positive sera = assay: Epitope mapping of BCLA repeat and rBCLA (dot blot peptide assay); format: binding; settings: 59 peptides of 15 aa covering res 1089-1275; human sera 1/400
From the text: Epitope mapping of BCLA repeat and rBCLA. Dot blot peptide assays were custom synthetized by JPT Peptide technologies on cellulose membranes with N-Acetyl moieties on the N-terminus. Two sets of membranes were screened: 1) covering the rBCLA region (res 1089-1275) with a total of 59 peptides, each 15 aa long with an overlap of 12 and an offset of 3; 2) covering repeat 4 (res 446-493) with a total of 18 peptides, each 15 aa long with an overlap of 12 and an offset of 3. Dot blot assays were performed as described by the manufacturer. Briefly, the membranes were first activated 5 min in 100% ethanol then washed 3 times 3 min in DPBS-tween. Blocked O.N at 4° C. in DPBS-Tween 0.5% powdered milk then washed again 3*3 min in DPBS-tween. Tested sera were diluted to 1/400 in DPBS-tween 0.1% BSA and incubated for 3 h at RT with the membrane. Following a 3*3 min DPBS-tween wash, membranes were incubated with anti-IgG peroxidase coupled Ab (Sigma A0170) diluted to 1/100 000 for 2 h at RT. […] Dot intensity was integrated using ImageJ. […]. For data analysis of independent dot blots, integrated intensities from every peptide dot [I(p)] were normalised into enrichment factors Fe(p) using the baseline integrated intensity of peptide 59[I(p=59)] which never reacts with any sera. The following can be expressed with the following equation: […]
In order to increase the reactivity score over several independent positive sera blots symbolised as (+), Fe(p) enrichment scores were summed with each other and to subtract the non-specific reactivity, the same sum was performed on the same number of negative sera peptides, symbolised as (−) and subtracted. Peptide reactivity scores can be expressed though the following equation:
Rs(p)=[Σ(Fe(p))^(+)−Σ(Fe(p))^(−)]

[1] = target: T1, His rBCLA (HisTag-rBCLA: C-terminal domain of BCLA, res 1089-1275, with a TEV cleavable N-terminal His-tag) (Toxoplasma gondii); assay: ELISA, periplasmic extract on coated His rBCLA
T1 construct: also called Cter-BCLA; recombinant rBCLA
T1 chain: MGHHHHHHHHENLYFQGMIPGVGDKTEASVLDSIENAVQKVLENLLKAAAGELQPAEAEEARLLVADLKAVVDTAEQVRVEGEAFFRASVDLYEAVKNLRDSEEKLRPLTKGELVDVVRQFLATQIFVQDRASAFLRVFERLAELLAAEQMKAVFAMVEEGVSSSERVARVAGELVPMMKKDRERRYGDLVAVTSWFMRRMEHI

His rBCLA = assay: ELISA binding of purified VHH to immobilized His rBCLA; parameters: species or system Toxoplasma gondii; settings: 200 ng/well antigen, serial dilution of VHH
Protocol: The binding of purified VHH to immobilized His rBCLA was analyzed by ELISA. A MaxiSorp plate was coated with 200 ng/well antigen overnight at 4° C. in PBS. After blocking the wells with 4% MPBS, a serial dilution of the VHH was added to the coated wells and incubated for 1 hour at room temperature. After washing unbound VHH, bound VHH were detected using a mouse-anti-flag (clone M2) and donkey-anti-mouse coupled to HRP. Binding was quantified by measuring colorimetric reaction of OPD+H2O2 at 490 nm. ERB-1G6, ERB-1B11 and ERB-1A12 show a subnanomolar apparent affinity to immobilized His rBCLA. ERB-1F1 and ERB-1F2 show a low nanomolar affinity. ERB-1H4 and ERB-1D7 show a […] apparent affinity to His rBCLA.

[2] = target: T1, His rBCLA (HisTag-rBCLA: C-terminal …); assay: phage display selection on His rBCLA and ELISA, as retold in the description
[3] = target: T1, His rBCLA (HisTag-rBCLA: C-terminal …); assay: ELISA on coated His rBCLA (conclusion of Example 2)
[4] = target: T1, His rBCLA (HisTag-rBCLA: C-terminal …); assay: ELISA, serial dilution of purified VHH on coated His rBCLA (200 ng/well), anti-flag detection

## EGEAFFRASVDLYEA (Synthetic peptide 22 of rBCLA)
BCLA positive sera
  peptide reactivity (total reactivity score), rBCLA region array: stronger zones of reactivity

## KLRPLTKGELVDVVR (Synthetic peptide 30 of rBCLA)
BCLA positive sera
  peptide reactivity (total reactivity score), rBCLA region array: stronger zones of reactivity

## QPAEAEEARLLVADL (Synthetic peptide 13 of rBCLA)
BCLA positive sera
  peptide reactivity (total reactivity score), rBCLA region array: stronger zones of reactivity

B1: VHH ERB-1F1 (VHH)
VHH: EVQLVESGGGLVQAGDSLRLSCAASGRTFSRVTMGWFRQAPGKEREFVAGISWSGTRTDYPDSVKGRFTVSRDNAKKTMWLQMSSLRPEDTAVYHCAADSTLYGSAISNNREAYAYWGQGTQVTVSS
notes: also called VH ERB-1F1; not shown: C-terminal FLAG and His-tag from vector pMEK222
[1]
  binding result: binds

B2: ERB-1F1: single domain antibody (VHH) selected on His rBCLA, SEQ ID NO: 60 (protein)
VHH: B1 VHH
modifications: Synthetic VHH ERB-1F1
His rBCLA
  apparent affinity to immobilized His rBCLA: low nanomolar

B3: VHH ERB-1H4 (VHH)
VHH: EVQLVESGGGLVQAGGSLRLSCVASGRTFSRYTVGWFRQAPGKEREFVAGISWSGSRTSYADSVKGRFTISRDNDKTTGYLQMNSLKPEDTAVYYCAAITKLYENNIPRSVSDYALWGQGTQVTVSS
notes: also called VH ERB-1H4; not shown: C-terminal FLAG and His-tag from vector pMEK222
[1]
  binding result: binds

B4: ERB-1H4: single domain antibody (VHH) selected on His rBCLA, SEQ ID NO: 62 (protein)
VHH: B3 VHH
modifications: Synthetic VHH ERB-1H4
His rBCLA
  apparent affinity to immobilized His rBCLA: molar

B5: VHH ERB-1B11 (VHH)
VHH: EVQLVESGGGLVQAGGSLRLTCAASGRTFRRSNMAWFRQPPGKERDFVAAIKWSGSSTNYADSVKGRFTISRDNDKNTVYLQMNVLKPEDTGVYYCAQESSLYSNYLPVVSSAYDYWGQGTQVTVSS
notes: also called VH ERB-1 B11; not shown: C-terminal FLAG and His-tag from vector pMEK222
[2]
  binding result: binds

B6: ERB-1B11: single domain antibody (VHH) selected on His rBCLA, SEQ ID NO: 58 (protein)
VHH: B5 VHH
modifications: Synthetic VHH ERB-1B11
His rBCLA
  apparent affinity to immobilized His rBCLA: subnanomolar; also recorded: very good

B7: VHH ERB-1A12 (VHH)
VHH: EVQLVESGGGLVQAGGSLRLSCAASGRTFSRYFMGWFRQAPGKEREFVAGIIWSGTRTYYVDSVKGRFTISRDNDKRMVYLQMNSLKPEDTAVYYCAAYKEYYGTPAQLYAAASYDYWGQGTQVTVSS
notes: also called VH ERB-1A12; not shown: C-terminal FLAG and His-tag from vector pMEK222
[3]
  binding result: binds

B8: ERB-1A12: single domain antibody (VHH) selected on His rBCLA, SEQ ID NO: 59 (protein)
VHH: B7 VHH
modifications: Synthetic VHH ERB-1A12
His rBCLA
  apparent affinity to immobilized His rBCLA: subnanomolar; also recorded: very good

B9: VHH ERB-1G6 (VHH)
VHH: EVQLVESGGGLVQAGGSLGLSCAASGRPGRIFTRNSMAWFRQAPGKEREFVASINWSGTSTSYADSVKGRFAISRDNDKNTVYLQMNSLKPEDTAVYYCAADSALYGSMHKTPADYEYWGQGTQVTVSS
notes: also called VH ERB-1 G6; not shown: C-terminal FLAG and His-tag from vector pMEK222
[4]
  binding result: binds

B10: ERB-1G6: single domain antibody (VHH) selected on His rBCLA, SEQ ID NO: 57 (protein)
VHH: B9 VHH
modifications: Synthetic VHH ERB-1G6
His rBCLA
  apparent affinity to immobilized His rBCLA: subnanomolar; also recorded: very good

B11: VHH ERB-1F2 (VHH)
VHH: EVQLVESGGGLVQVGGSLRLSCAASGRTFRRNTIGWFRQAPGKEREFVAAISWSGTRTKYADPVKGRFTISRDNDKNTAYLQMNTLKPDDTAVYYCAADGALYGSDVSGLARVYDYWGQGTQVTVSS
notes: also called VH ERB-1F2; not shown: C-terminal FLAG and His-tag from vector pMEK222
[1]
  binding result: binds

B12: ERB-1F2: single domain antibody (VHH) selected on His rBCLA, SEQ ID NO: 61 (protein)
VHH: B11 VHH
modifications: Synthetic VHH ERB-1F2
His rBCLA
  apparent affinity to immobilized His rBCLA: low nanomolar

B13: VHH ERB-1D7 (VHH)
VHH: KVQLVESGGGLVQAGGSLRLSCAASGRTFSRRGMGWFRQAPGKEREFVATIKWSGTSTDYADSVKGRFTISRDNAKNTVYLQMNNLQPEDTAVYYCAADRQLYRDGYVPLNEYEDWGQGTQVTVSS
notes: also called VH ERB-1D7; not shown: C-terminal FLAG and His-tag from vector pMEK222
[1]
  binding result: binds

B14: ERB-1D7: single domain antibody (VHH) selected on His rBCLA, SEQ ID NO: 63 (protein)
VHH: B13 VHH
modifications: Synthetic VHH ERB-1D7
His rBCLA
  apparent affinity to immobilized His rBCLA: molar
